Laboratory results: patent US20240368233A1 (University of Washington, published 2024)

Key:
[1] = target: T1, DFA-1; assay: SEC of mixed components; trimer listed in Table 6
T1 construct: Bivalent connector
T1 chain: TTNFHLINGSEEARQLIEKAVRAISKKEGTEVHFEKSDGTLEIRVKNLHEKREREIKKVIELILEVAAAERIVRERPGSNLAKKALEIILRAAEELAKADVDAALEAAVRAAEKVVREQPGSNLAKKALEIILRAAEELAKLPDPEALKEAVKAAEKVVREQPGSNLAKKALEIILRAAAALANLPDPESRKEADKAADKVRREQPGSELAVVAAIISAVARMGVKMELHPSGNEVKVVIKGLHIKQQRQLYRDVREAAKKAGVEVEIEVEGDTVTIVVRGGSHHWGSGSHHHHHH

[2] = target: T2, DFX; assay: negative-stain EM of the heterotrimer; components named in the legend
T2 construct: Bivalent connector
T2 chain: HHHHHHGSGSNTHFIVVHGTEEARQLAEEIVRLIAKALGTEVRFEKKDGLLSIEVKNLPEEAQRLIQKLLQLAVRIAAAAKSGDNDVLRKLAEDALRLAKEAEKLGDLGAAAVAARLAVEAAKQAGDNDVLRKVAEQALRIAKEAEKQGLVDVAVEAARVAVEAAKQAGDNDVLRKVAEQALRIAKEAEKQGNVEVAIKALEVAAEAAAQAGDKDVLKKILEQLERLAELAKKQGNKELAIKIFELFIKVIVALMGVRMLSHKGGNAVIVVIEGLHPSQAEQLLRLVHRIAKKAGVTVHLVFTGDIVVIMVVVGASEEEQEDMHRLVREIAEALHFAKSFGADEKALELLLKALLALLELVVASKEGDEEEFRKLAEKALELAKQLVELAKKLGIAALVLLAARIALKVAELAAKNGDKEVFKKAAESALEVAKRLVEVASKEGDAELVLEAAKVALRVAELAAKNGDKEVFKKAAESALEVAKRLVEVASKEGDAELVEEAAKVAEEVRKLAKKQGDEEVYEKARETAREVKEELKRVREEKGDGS
Description: SEC peak fractions were concentrated prior to negative stain EM screening. Samples were then immediately diluted 5 to 150 times in TBS buffer (25 mM Tris pH 8.0, 25 mM NaCl) depending on sample concentration. A final volume of 5 μL was applied to negatively glow discharged, carbon-coated 400-mesh copper grids (01844-F, TedPella, Inc.), then washed with Milli-Q™ Water and stained using 0.75% uranyl formate as previously described (53). Air-dried grids were imaged on a FEI Talos L120C TEM (FEI Thermo Scientific, Hillsboro, OR) equipped with a 4K×4K Gatan OneView™ camera at a magnification of 57,000× and pixel size of 2.51. Micrographs were imported into CisTEM software or cryoSPARC™ software and a circular blob picker was used to select particles which were then subjected to 2D classification. Ab initio reconstruction and homogeneous refinement in Cn symmetry were used to generate 3D electron density maps (54, 55).

[3] = target: T3, DF202; assay: SEC of mixed components; trimer listed in Table 6
T3 construct: Bivalent connector
T3 chain: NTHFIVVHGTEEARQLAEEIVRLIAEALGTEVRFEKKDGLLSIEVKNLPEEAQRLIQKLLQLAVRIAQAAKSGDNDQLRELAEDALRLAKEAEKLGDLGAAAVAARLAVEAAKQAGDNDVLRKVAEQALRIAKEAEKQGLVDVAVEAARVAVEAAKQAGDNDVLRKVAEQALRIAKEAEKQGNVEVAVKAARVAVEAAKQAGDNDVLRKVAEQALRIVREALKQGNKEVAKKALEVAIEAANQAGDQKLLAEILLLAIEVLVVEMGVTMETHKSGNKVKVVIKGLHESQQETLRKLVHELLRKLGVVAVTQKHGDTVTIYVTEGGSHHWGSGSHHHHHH

[4] = target: T4, DF206; assay: SEC of mixed components; trimer listed in Table 6
T4 construct: Bivalent connector
T4 chain: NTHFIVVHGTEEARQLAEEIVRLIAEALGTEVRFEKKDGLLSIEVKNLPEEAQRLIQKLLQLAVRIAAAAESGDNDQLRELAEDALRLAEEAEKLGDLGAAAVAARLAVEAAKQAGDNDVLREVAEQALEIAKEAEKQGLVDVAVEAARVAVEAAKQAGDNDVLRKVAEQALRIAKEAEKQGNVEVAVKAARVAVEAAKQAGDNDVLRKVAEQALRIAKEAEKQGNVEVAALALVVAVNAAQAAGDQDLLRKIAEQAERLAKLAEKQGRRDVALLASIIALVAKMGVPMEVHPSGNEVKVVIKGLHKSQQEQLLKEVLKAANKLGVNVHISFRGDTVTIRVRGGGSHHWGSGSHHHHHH

B1: 101B62 (designed binder)
chain: HHHHHHGSGLNDIFEAQKIEWHEAENLYFQSGSNDEKRKRAEKALQRAQEAEKKGDVEEAVRAAQEAVRAAKESGDNDVLRKVAEQALRIAKEAEKQGNVEVAVKAARVAVEAAKQAGDNDVLRKVAEQALRIAKEALKQGNVDVAAKAAQVAEEAAKQAGDQDVLRKVKEVQIEIVLAAIELTVRKMGVTMETHRSGREVKVVIKGLHESQQEQLLEDVLRIAELAGVRVRIRFKGDTVTIVVRG
notes: also called LHD101B62
- binding result [1]: binds

B2: 274A53 (designed binder)
chain: TTNFHLINGSEEARQLIEKAVRAISKKEGTEVHFEKSDGTLEIRVKNLHEKREREIKKVIELILEVAAAERIVRERPGSNLAKKALEIILRAAEELAKADVDAALEAAVRAAEKVVREQPGSNLAKKALEIILRAAEELAKLPDPEALKEAVKAAEKVVREQPGSELAKKALEIIERAAEELKKSPDPEAQKEAKKAEQKVREESGSHHWGSGLNDIFEAQKIEWHEGSHHHHHH
notes: also called LHD274A DHR53 stop; LHD274A53
- binding result [2]: binds
- binding result [3]: binds
- binding result [4]: binds
